A short description of the data set: label from the status in PepcDB records.

Experimental findings from a protein production outcome set (Wang et al. 2014) are described below.

Consider “MLTTRLLISQRGRIAMKQVHLLTPVAGQLVPLESVHDPVFSQGMMGQGFGIEPTDGQVVAPISGKVTMVAASLHAIGFTGNNGLEVLVHLGIDTVELADRPPFKVNVQVGDTVEAGEKVAMMDLAAITSANKDTTVIMAVTNTADMVTKLTPELGEVRAGVVGAVVELKEHVAEASVVKGKGGKYDELATQIIAQVGGPVNVKSVIHCITRVRFYLKDEGQANDEAIRNLKGVIDVAKAGGQYQVVIGPAVTDVYDAIVGQLGAGFGDADASAVAMEKEANRLAWQKMTPWQKVKHGFSSLIGVITGSMIPVIGLLAASGILKGILSLLKNFNLVSATTPTYVIINAMGDSVFYFLPIFVGFTAAKKLGADPVIMGIIGGVLTYPAIVGMATTGKVTGHLLGMAINANFFGIPVHVASYTYSIFPMIAGAWLASKLEPWLKRVIPTVLRMIFVPLFEVVIISGAIIIILGPIITALSGALAAGIVAIYKLSPAISGLIIGGFYQVLVIFGLHWAIIPIVVNDITTTGHSYLNAIVSATMVAQGGAVLAIALKSKFANIKELAWPATISAFCGVTEPAMYGINLKYGRAFITASIGGAVGGFLTGLFNVNMWGFAGSLIGVTSFINPKGLDFSFYGFLIASAIDLIVAFTLTWMFGFSDNDVKNVKKAPEKKHLGQQVAN”, for which the protein production result is “failed”.

For the sequence “MLTVEPSEIQLTPGPILSLYLDLAGHLNWHIRSNLYLRGAEPRLDQKDPAAAAILELSLRLGSAPGGSVSCCWVTVSPGRMSVIDHVRDMAAAGLHSNVRLLSSLLLTMSNNNPELFSPSQKYQLLVYHADSLFHDKEYRNAVSKYTMALQQKKALSKTSKCLPSEIEVKYKMAECYTMLKLDKDAIAILDGIPSRQRTPKINMMLANLYKKAGQERPSVTSYKEVLRQCPLALDAILGLLSLSVKGAEVASMTMNVIQTVPNLDWLSVWIKAYAFVHTGDNSRAINTICSLEKKSLLRDNVDLLGSLADLYFRAGDNKNSVLKFEQAQMLDPYLIKGMDVYGYLLAREGRLEDVENLGCRLFNISDQHAEPWVVSGCHSFYSKRYSRALYLGAKAIQLNSNSVQALLLKGAALRNMGRVQEAIIHFREAIRLAPCRLDCYEGLIECYLASNSIREAMVMANNVYKTLGANAQTLTLLATVCLEDPVTQEKAKTLLDKALAQRPDYVKAVVKKAELLSREQKYEDGIALLRNALANQSDCVLHRILGDFLVSVNEYQEAMDQYSIALSLDPNDQKSLEGMQKMEKEGSPTDATQEDDVDDMEGSGEEGDLEGSDSEAAQWADQEQWFGMQ”, the protein production result was “failed”. As for “MLTVGILGGGQLGWMTILEGRKLGFKFHVLEDKENAPACRVADRCFRTGQISEFVDSCDIITYEFEHIKDEVLEKCESKLIPNPQALYVKKSRIREKLFLKKHGFPVPEFLVIKRDEIIDALKSFKLPVVIKAEKLGYDGKGQYRIKKLEDANQVVKNHDKEESFIIEEFVKFEAEISCIGVRDREGKTYFYPQPFNKHEEGILIYNYVPYAKLKEAEEITKRLMELLDIVGVFTVEFFLLKDGRVLINEFAPRVHNTGHWTLDGAYTSQFENLLRAITEMPLGSTELKLPSGMVNILGKSYEEIPLKEILSVEGAKLYWYGKEKKPRRKVGHVNVVGRSKEEVVEKVERVFTLLKGSREKLPAP”, the protein production result is “not failed”. For “MLVLILLSSSLAIFAIINLSYSLGDAKAINASGSLRMQSYRLMFYANSGSEAAQEKITEFENTLHSEALHPSKSWLSPKKIAAQYQLVIDKWLVMKYYIEQENSRDYAASLKDFVDTIDLLVLEMEHHAAFKLRLLAASQIFGLGLMLSIAFLAVRFTKRKVVVPLQQLMESANTISKGNFEIEMPETEYIELTALTDALQKTARELATLYGNLESQVAEKTLALTRANNELAFLYDTLLTLNAKKLDYKALKAALNQLKDYESIDYLRLIIQYPEQELEMIEANGGWPESADNSTRFPLQFEQANLGYLELISAQDINTPLFKNFAIMLTRSIVIHNATEQRQQLALMEERGVIARELHDSLGQVLSFLKIQISLLRKNLDHSCRSPAVEVQLTEINEGVSTAYVQLRELLSTFRLTIKEPNLKNAMEAMLEQLRANTDIKIHLDYKLSPQWLEAKQHIHILQITREATLNAIKHANASHINIRCYKDDRGMVNISVSDNGVGIGHIKERDQHFGIGIMHERASKLDGEVVFSSNDTHTNSTATTEQRHQENPDSPLESHNTSNLSQGTIVTLIFPSQQEPTHG” the value was “failed”; for “MLVLSYILLFASALFAWNMGSHYSGAVMGMAYGSKSLTIRQATVIAATFAFLGTITASSGVVHTYAFSLVGTTTIRQLTAALLGASVAILISTILKLPASTIQVYTFSLLFVGLASNIKLMYGGIEIVLSMWILMPLAAMLLSYLLAPKLVSKLADDSRKLKIIIIGSSVFSSFTLGSNDVSSAISPLVKVGILTGIVPYVFGGFFIGLGLITWGQRLIRRVGTEVVKTNAPLAAAAQLTEAIVIISGNLVGYNASINQTIIMSIYGAKRSMKSHVVTPMIFRSILLNWTVSSLISAVFGLFFLFILNLYI”, “failed”.
